In patent US20070265198A1 (ROCKEFELLER UNIVERSITY, published 2007):

Legend:
[1] = molecular target: T1, PlyC-A, the PlyC heavy chain (C1 bacteriophage lysin, ORF 11)
T1 chain: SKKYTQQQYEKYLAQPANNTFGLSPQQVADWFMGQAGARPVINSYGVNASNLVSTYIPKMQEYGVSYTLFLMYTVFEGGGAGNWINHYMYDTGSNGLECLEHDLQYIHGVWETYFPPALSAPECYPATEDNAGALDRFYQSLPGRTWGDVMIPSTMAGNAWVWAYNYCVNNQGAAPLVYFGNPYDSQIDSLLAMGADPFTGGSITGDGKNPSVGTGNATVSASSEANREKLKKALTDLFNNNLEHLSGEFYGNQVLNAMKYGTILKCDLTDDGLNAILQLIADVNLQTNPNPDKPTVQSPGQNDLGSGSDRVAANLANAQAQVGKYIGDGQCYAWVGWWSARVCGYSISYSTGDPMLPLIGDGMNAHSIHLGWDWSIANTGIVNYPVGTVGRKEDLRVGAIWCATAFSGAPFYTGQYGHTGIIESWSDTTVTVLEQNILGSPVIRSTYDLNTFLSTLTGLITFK

[2] = molecular target: T2, PlyC-A, the PlyC heavy chain (C1 bacteriophage lysin, ORF 11) (C1 bacteriophage, UniProt Q7Y3F1 2-465); test: N-terminal sequencing signals of the native enzyme (55 pm PlyC-B, 12 pm PlyC-A)
T2 construct: 50 kDa subunit of the PlyC lysin; also called heavy subunit (ORF 11); plyCA gene product
T2 sequence: T1 chain

[3] = molecular target: T2, PlyC-A, the PlyC heavy chain (C1 …); test: 35S-methionine labelling of purified PlyC, SDS-PAGE bands counted by scintillation (n=20), cpm per methionine
Experimental: ³⁵S-methionine labeling of PlyC. […] A fresh 20 ml overnight culture of B834/pBAD24::plyC was washed twice with M9 media, and used to inoculate a 2 L flask of M9 minimal media supplemented with 2 mCi ³⁵S-methionine (New England Nuclear). Expression of ³⁵S-Methionine-PlyC was induced with 0.5% arabinose and the enzyme was purified as described above. The heavy and light chains were resolved by SDS-PAGE using 15 μg of labeled PlyC loaded each lane (n=20). Individual bands were cut out of the gel, suspended in 1 ml of SigmaFluor scintillation fluid (Sigma), and counts per minute (cpm) of β-activity was assessed on a Beckman LS5000TD counter.
In order to achieve a mass of 100 kDa, multiple copies of one or both subunits must exist. Thus, PlyC is a multimer. Circumstantial evidence for a molar ratio of 5 light chains to one heavy chain was obtained from N-terminal sequencing of the native enzyme, which yielded a 55 pm signal for PlyC-B and a 12 pm signal for PlyC-A (data not shown). […] Therefore, to further investigate the ratios of PlyC-A and PlyC-B, we cloned plyC into B834 E. coli cells, which are auxotrophic for methionine. […] We were able to enumerate an average signal, measured in counts per minute, for each chain by placing gel-extracted bands (n=20) in scintillation fluid and measuring the β activity (Table IV). […]

B1: PlyC-B, the PlyC light chain (C1 bacteriophage lysin, ORF 9) (enzyme)
chain: SKINVNVENVSGVQGFLFHTDGKESYGYRAFINGVEIGIKDIETVQGFQQIIPSINISKSDVEAIRKAMKK
notes: 8 kDa subunit of the PlyC lysin, a 72 amino acid polypeptide; About six copies per PlyC-A are proposed in the native multimer; also called light subunit (ORF 9); plyCB gene product
- PlyC lytic activity of a double transformant (pBAD33::plyCB and pBAD24::plyCA in one host) [1]: Upon induction with 0.5% arabinose, the double transformant contained PlyC activity
- activity of the refolded PlyC-B and PlyC-A mixture, normalized to the native PlyC clone (FIG. 3, lane 5) [1]: reconstituted ~25% of the wild-type activity (lane 5)
- lytic activity on group A streptococci (chains expressed individually, mixed, incubated 1 hr at room temperature) [1]: When both chains were mixed together and allowed to incubate at room temperature for 1 hr, again no activity was noted
- lytic activity on group A streptococci after urea denaturation and refolding of the mixed chains, relative to wild-type PlyC [1]: we were able to reconstitute ~30% of wild-type activity
- lytic activity on group A streptococci of a lil- chimera with full-length plyCB and plyCA [1]: a lil- chimera, which contained full-length plyCB and plyCA, possessed wild-type PlyC activity
- molar ratio of light chains to heavy chain [2]: 5 light chains per heavy chain
- Avg. ratio PlyC-A:PlyC-B [3]: 6.17 PlyC-B per PlyC-A
